Residue numbers refer to the chain shown, from its start. Names and notes keep the numbering of the source. Numbered stars: 1 amine (or outer) side, 2 acyl side, 3 side chain; on linkers, the order of the positions; unused ones are H or OH. Peptide text beside a SMILES is read from it. * marks the point of attachment. pNA = O=[N+]([O-])c1ccc(N*)cc1; Suc = O=C(CCC(=O)[*:2])[*:1]

Broadly, the kcat is the maximal rate divided by the concentration of active sites. Usually Km stands for the substrate concentration at which the rate is half of its maximum.

Holding throughout (test): Kinetic parameters for hydrolysis of synthetic peptide substrate
Data set [1] deals with T1, B. amyloliquefaciens subtilisin (BPN'), wild type, Seq. ID No.7 (Bacillus amyloliquefaciens, UniProt P00782).
T1 construct: made in house; host or cells: protease-deficient Bacillus subtilis
T1 sequence (P00782 108-382): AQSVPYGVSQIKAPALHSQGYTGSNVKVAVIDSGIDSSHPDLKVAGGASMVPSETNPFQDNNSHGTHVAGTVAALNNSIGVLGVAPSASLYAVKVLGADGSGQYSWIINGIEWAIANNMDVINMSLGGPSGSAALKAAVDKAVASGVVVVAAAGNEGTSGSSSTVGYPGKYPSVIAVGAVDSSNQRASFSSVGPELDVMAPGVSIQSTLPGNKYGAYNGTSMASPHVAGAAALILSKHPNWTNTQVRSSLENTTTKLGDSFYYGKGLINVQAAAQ
The format is biochemical. As to conditions: Table V; 0.1 M Tris-HCL buffer, pH 8.6, 25° C. How it is done: (§1) The kinetic parameters kcat, KM, and kcat KM are measured for hydrolysis of the synthetic peptide substrate succinyl-L-Ala-L-Ala-L-Pro-L-Phe-p-nitroanilide using the method described in P. Bonneau et al. (1991) J. Am. Chem. Soc., Vol. 113, No. 3, p. 1030. Briefly, a small aliquot of subtilisin variant stock solution is added to a 1 cm cuvette containing substrate dissolved in 0.1 M Tris-HCL buffer, pH 8.6, and thermostated at 25° C. The reaction progress is followed spectrophotometrically by monitoring the absorbance of the reaction product p-nitroaniline at 410 nm. Kinetic parameters are obtained by using a non-linear regression algorithm to fit the reaction velocity and product concentration for each reaction to the Michaelis-Menten equation.
(§2) Numerous variants are made as per the teachings of these Protease Manufacture Examples. Kinetics data and stability data are generated for such variants. The kinetics data are generated using the methods described hereinbefore and are provided in Table V. The stability data are generated as detailed herein.

The target of data set [2] is T2, Bacillus lentus subtilisin (GG36), wild type, Seq. ID No.10 (Lederbergia lenta, UniProt P29600).
T2 construct: The mature subtilisin protein is coded by the codons beginning at the codon GCG (334-336) corresponding to Ala; made in house; host or cells: Bacillus subtilis
T2 sequence (P29600 1-269): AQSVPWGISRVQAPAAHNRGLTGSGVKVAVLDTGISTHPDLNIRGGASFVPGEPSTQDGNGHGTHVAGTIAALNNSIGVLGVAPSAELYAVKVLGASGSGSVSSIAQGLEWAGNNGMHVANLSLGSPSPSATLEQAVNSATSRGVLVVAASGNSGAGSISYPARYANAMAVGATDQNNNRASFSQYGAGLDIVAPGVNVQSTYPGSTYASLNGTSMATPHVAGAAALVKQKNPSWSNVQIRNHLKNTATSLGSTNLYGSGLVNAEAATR
The format is biochemical. The conditions noted are these: Table III; 0.1 M Tris-HCL buffer, pH 8.6, 25° C. How it is done: as §1, §2

Substrate in data set [3]: C[C@H](NC(=O)CCC(=O)O)C(=O)N[C@@H](C)C(=O)N1CCC[C@H]1C(=O)N[C@@H](Cc1ccccc1)C(=O)Nc1ccc([N+](=O)[O-])cc1
The class given is biochemical, Bacillus lentus. As to conditions: other: Table III, 0.1 M Tris-HCL buffer, pH 8.6, 25° C. How it is done:
as §1, §2

Substrate in data set [4]: C[C@H](NC(=O)CCC(=O)O)C(=O)N[C@@H](C)C(=O)N1CCC[C@H]1C(=O)N[C@@H](Cc1ccccc1)C(=O)Nc1ccc([N+](=O)[O-])cc1
The class given is biochemical, Bacillus lentus. The conditions noted are these: other: Table III, 0.1 M Tris-HCL buffer, pH 8.6, 25° C. How it is done:
as §1
This is another data set of the same source.

Substrate in data set [5]: C[C@H](NC(=O)CCC(=O)O)C(=O)N[C@@H](C)C(=O)N1CCC[C@H]1C(=O)N[C@@H](Cc1ccccc1)C(=O)Nc1ccc([N+](=O)[O-])cc1
The class given is biochemical, Bacillus amyloliquefaciens. The conditions noted are these: other: Table V, 0.1 M Tris-HCL buffer, pH 8.6, 25° C. How it is done: as §1, §2

In the case of `C[C@H](NC(=O)CCC(=O)O)C(=O)N[C@@H](C)C(=O)N1CCC[C@H]1C(=O)N[C@@H](Cc1ccccc1)C(=O)Nc1ccc([N+](=O)[O-])cc1` [succinyl-L-Ala-L-Ala-L-Pro-L-Phe-p-nitroanilide] (Suc-AAPF-pNA), in data set [1], the kcat stood at 50 s⁻¹ and the kcat/KM turned out to be 3.60E + 05 s^-1 M^-1. The “kcat/KM” value in data set [2] is 218000 M⁻¹ s⁻¹.

B1: Bacillus lentus subtilisin (GG36), wild type, Seq. ID No.10 (Lederbergia lenta) (protein)
chain: T2 sequence (P29600 1-269)
notes: The mature subtilisin protein is coded by the codons beginning at the codon GCG (334-336) corresponding to Ala; made in house; host or cells: Bacillus subtilis
Turning to B1, in data set [3], the Km came to 780 µM, the kcat is 170 s⁻¹ and the kcat/Km is listed as 2.20E + 05 s^-1 M^-1.

B2: Bacillus lentus subtilisin variant N76D (Lederbergia lenta; N74D) (protein)
chain: T2 sequence (P29600 1-269) with N74D
notes: as for B1
Take B2: in data set [4], the Km came to 800 µM, the kcat was 219 s⁻¹ and the kcat/Km was 274000 M⁻¹ s⁻¹.

B3: Bacillus lentus subtilisin variant N76D/S101R (Protease #2) (Lederbergia lenta; N74D/S99R) (protein)
chain: T2 sequence (P29600 1-269) with N74D, S99R
notes: as for B1
Take B3: in data set [4], the Km was found to be 1300 µM, the kcat amounted to 371 s⁻¹ and the kcat/Km was 285000 M⁻¹ s⁻¹.

B4: Bacillus lentus subtilisin variant N76D/S99D (Protease #1) (Lederbergia lenta; N74D/S97D) (protein)
chain: T2 sequence (P29600 1-269) with N74D, S97D
notes: as for B1
For B4, in data set [4], the Km came out at 610 µM, the kcat turned out to be 88 s⁻¹ and the kcat/Km is 144000 M⁻¹ s⁻¹.

B5: Bacillus lentus subtilisin variant N76D/N123S (Protease #6) (Lederbergia lenta; N121S/N74D) (protein)
chain: T2 sequence (P29600 1-269) with N74D, N121S
notes: as for B1
Consider B5, for which, in data set [4], the Km is 1800 µM, the kcat is 115 s⁻¹ and the kcat/Km turned out to be 64000 M⁻¹ s⁻¹.

B6: Bacillus lentus subtilisin variant N76D/I107V (Protease #5) (Lederbergia lenta; I105V/N74D) (protein)
chain: T2 sequence (P29600 1-269) with N74D, I105V
notes: as for B1
Regarding B6, in data set [4], the Km worked out at 1100 µM, the kcat is 219 s⁻¹ and the kcat/Km was 199000 M⁻¹ s⁻¹.

B7: Bacillus lentus subtilisin variant N76D/S99D/S101R (Protease #7) (Lederbergia lenta; N74D/S97D/S99R) (protein)
chain: T2 sequence (P29600 1-269) with N74D, S97D, S99R
notes: as for B1
In the case of B7, in data set [4], the Km stood at 380 µM, the kcat came to 146 s⁻¹ and the kcat/Km amounted to 384000 M⁻¹ s⁻¹.

B8: Bacillus lentus subtilisin variant N76D/V104I (Protease #4) (Lederbergia lenta; N74D/V102I) (protein)
chain: T2 sequence (P29600 1-269) with N74D, V102I
notes: as for B1
With B8, in data set [4], the Km was found to be 1100 µM, the kcat was 459 s⁻¹ and the kcat/Km stood at 417000 M⁻¹ s⁻¹.

B9: Bacillus lentus subtilisin variant N76D/S103A (Protease #3) (Lederbergia lenta; N74D/S101A) (protein)
chain: T2 sequence (P29600 1-269) with N74D, S101A
notes: as for B1
As for B9, in data set [4], the Km worked out at 1400 µM, the kcat is 400 s⁻¹ and the kcat/Km turned out to be 286000 M⁻¹ s⁻¹.

B10: B. amyloliquefaciens subtilisin (BPN') variant BPN'-N76D/Y217L (Bacillus amyloliquefaciens; N183D/Y324L) (protein)
chain: AQSVPYGVSQIKAPALHSQGYTGSNVKVAVIDSGIDSSHPDLKVAGGASMVPSETNPFQDNNSHGTHVAGTVAALDNSIGVLGVAPSASLYAVKVLGADGSGQYSWIINGIEWAIANNMDVINMSLGGPSGSAALKAAVDKAVASGVVVVAAAGNEGTSGSSSTVGYPGKYPSVIAVGAVDSSNQRASFSSVGPELDVMAPGVSIQSTLPGNKYGALNGTSMASPHVAGAAALILSKHPNWTNTQVRSSLENTTTKLGDSFYYGKGLINVQAAAQ
notes: made in house; host or cells: protease-deficient Bacillus subtilis
B10: in data set [5], the Km was determined as 460 µM, the kcat worked out at 380 s⁻¹ and the kcat/Km is listed as 8.30E + 05 s^-1 M^-1.

(Values after patent US6017871A, “Protease-containing cleaning compositions” (The Procter & Gamble Company, priority 1997, dated 2000).)
